These results are taken from publication PMC7265302.

The target of the assay is MavC, wild type (Legionella pneumophila) (UniProt Q5ZTL4). Briefly: ITC. (In general: In ITC the heat of successive injections is recorded.)

Substance “Lpg2149, wild type (from UniProt Q5ZTL2 1-119) (natural protein)” showed a Kd of 0.57 nM. That is a sub-nanomolar value.

The Kd is a measure of binding affinity in units of concentration.
